Laboratory results from patent publication US20260083853A1, “CD70 ANTIBODY DRUG CONJUGATES AND METHODS OF USING THE SAME” (Genmab A/S, priority 2022, published 2026).
Positions count from the first letter of the chain named.

Tests used:
[1] = test system: human CD70-expressing tumor cells (Raji, Caki-1, 786-O); assay: In vitro cytotoxicity (CTG, 96 h), all cell lines; format: cell-based
Description: Raji (ATCC, CCL-86), Caki-1 (Cobioer, CBP60448), and 786-O (BNCC, BNCC338472) were cultured in CO2 thermostatic incubator at 37° C. with 5% CO2 in standard conditions. Cells were sub-cultured every 1-2 days, digested with 0.25% trypsin and passaged with a suitable density. When the cells were in the logarithmic growth phase and the amount meeting the assay's demand, cells were collected and plated onto 96-well solid white flat bottom plates for assay. One day later test articles (2E7 antibody or 2E7-LD038 conjugate ranging from 2 μM to 0.1 nM, or exatecan ranging from 20 μM to 0.03 nM) were added to the cells. Plates were then incubated at 37° C. for 96 h. Cell Titer Glo (CTG) (40 μl per well) was subsequently added to the plates. Luciferase reading was collected 5 min after and analyzed by Microplate readers. All readings were normalized as percentage of viable cells in the untreated control wells and the IC50 values were calculated by Prism software.

[2] = biological target: T1, Human CD70 on CD70-expressing human tumor cell lines (Raji, 786-O, Caki-1) (human, UniProt P32970 1-193); assay: flow cytometry on Raji cells, detection with PE-conjugated anti-human Fc, MFI(PE)
T1 construct: whole, on cells; Endogenous CD70 on the cells; also called human CD70-expressing cell lines; CD70-positive cell lines 786-O, Raji and Caki-1
T1 sequence (looked up): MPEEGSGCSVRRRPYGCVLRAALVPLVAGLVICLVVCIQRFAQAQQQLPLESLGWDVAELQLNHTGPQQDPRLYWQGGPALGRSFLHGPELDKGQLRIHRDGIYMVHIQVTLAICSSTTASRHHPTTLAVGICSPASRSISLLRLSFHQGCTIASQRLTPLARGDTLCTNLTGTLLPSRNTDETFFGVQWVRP
Description: (§1) The binding activity of 2E7 antibody or 2E7-LD038 ADC was evaluated by Flow cytometric analysis (Beckman, Cytoflex) with target-expressing cell lines, Raji, 786-O, Caki-1, and a cell line with negligible CD70 expression, MCF-7. 3×10⁵ cells were seeded per well at 96-well v-bottomed plate and incubated with 100 μl of 2E7 or 2E7-LD038 in serial dilutions. After 30 minutes of incubation at 4° C., cells were washed twice with PBS, stained with 100 μl of 1:200 diluted PE-conjugated anti human Fc in FACS buffer (1×PBS containing 1% BSA) and then incubated at 4° C. for 30 minutes. After that the cells were washed 2 times with PBS and analyzed by Flow cytometric analysis.

[3] = biological target: T1, Human CD70 on CD70-expressing human …; assay: flow cytometry on 786-O cells, detection with PE-conjugated anti-human Fc, MFI(PE)
Description: as §1

[4] = biological target: T1, Human CD70 on CD70-expressing human …; assay: flow cytometry on Caki-1 cells, detection with PE-conjugated anti-human Fc, MFI(PE)
Description: as §1

[5] = biological target: T2, Recombinant mouse CD70 extra-cellular domain (ECD) linked to His tag (mouse, UniProt O55237 45-195); assay: BLI (Octet RED), antibody on anti-human IgG Fc tips, CD70 ECD-His in solution 200 to 3.13 nM
T2 construct: extracellular domain; Purchased or made in house; not shown: His tag
T2 sequence (looked up): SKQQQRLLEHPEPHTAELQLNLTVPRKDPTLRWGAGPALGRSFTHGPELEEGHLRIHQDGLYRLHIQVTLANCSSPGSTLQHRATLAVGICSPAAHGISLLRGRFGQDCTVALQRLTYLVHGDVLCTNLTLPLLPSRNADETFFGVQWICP
Description: (§2) Recombinant proteins consisting of the CD70 extra-cellular domain (ECD) linked to His tag were either purchased (from KACTUS or ACRO biosystems) or synthesized in house. 2E7 antibody or 2E7-LD038 conjugate (20 nM) was immobilized on anti-human IgG Fc biosensor tips (Fortebio). Binding assays using varying concentration from 200 nM down to 3.13 nM of recombinant protein in solution were performed using Octet RED (Fortebio). Association time was set at 180 seconds and dissociation time was set at 300 seconds. Binding affinity was calculated using ForteBio Data Acquisition 6.3 software (ForteBio). Affinity was derived by fitting the kinetic data to a 1:1 Langmuir binding model utilizing global fitting algorithms.

[6] = biological target: T3, Recombinant human CD70 extra-cellular domain (ECD) linked to His tag (human, UniProt P32970 39-193); assay: BLI (Octet RED), antibody on anti-human IgG Fc tips, CD70 ECD-His in solution 200 to 3.13 nM, 1:1 global fit
T3 construct: extracellular domain; Purchased (KACTUS or ACRO biosystems) or made in house; also called human CD70 protein; not shown: His tag
T3 sequence (looked up): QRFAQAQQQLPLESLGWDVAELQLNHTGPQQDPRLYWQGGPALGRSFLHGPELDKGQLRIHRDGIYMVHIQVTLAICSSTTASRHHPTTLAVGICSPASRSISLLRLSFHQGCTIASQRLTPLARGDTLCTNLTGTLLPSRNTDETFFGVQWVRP
Description: as §2

[7] = biological target: T4, Recombinant cynomolgus monkey CD70 extra-cellular domain (ECD) linked to His tag (cynomolgus monkey, UniProt A0A2K5WTU9 39-190); assay: as above
T4 construct: extracellular domain; Purchased or made in house; also called Cyno CD70; not shown: His tag
T4 sequence: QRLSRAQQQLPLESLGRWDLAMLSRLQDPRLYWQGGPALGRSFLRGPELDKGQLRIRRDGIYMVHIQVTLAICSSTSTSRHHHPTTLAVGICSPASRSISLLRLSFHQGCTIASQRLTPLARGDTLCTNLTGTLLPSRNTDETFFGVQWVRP
Description: as §2

[8] = biological target: T1, Human CD70 on CD70-expressing human …; assay: flow cytometry blocking assay on Raji cells; blocked ligand: biotinylated human CD27 at 30 ug/ml, detection with PE-conjugated streptavidin
Description: (§3) CD70-positive cell lines 786-O, Raji and Caki-1 were mixed with varying concentrations from 333.5 nM down to 6 nM of 2E7-LD038 conjugate, or 2E7 antibody, or negative binding control (B12), and incubated at 4° C. for 30 minutes. Cells were washed twice with PBS and then incubated with 30 µg/ml biotinylated human CD27 (the receptor for CD70) at 4° C. Staining was done using PE-conjugated streptavidin for 30 minutes and fluorescence was measured using flow cytometer.

[9] = biological target: T1, Human CD70 on CD70-expressing human …; assay: flow cytometry blocking assay on 786-O cells; blocked ligand: biotinylated human CD27 at 30 ug/ml, detection with PE-conjugated streptavidin
Description: as §3

[10] = biological target: T1, Human CD70 on CD70-expressing human …; assay: flow cytometry blocking assay on Caki-1 cells; blocked ligand: biotinylated human CD27 at 30 ug/ml, detection with PE-conjugated streptavidin
Description: as §3

[11] = biological target: T2, Recombinant mouse CD70 extra-cellular …; assay: BLI (Octet RED), conjugate on anti-human IgG Fc tips, CD70 ECD-His in solution 200 to 3.13 nM
Description: as §2

[12] = biological target: T3, Recombinant human CD70 extra-cellular …; assay: BLI (Octet RED), conjugate on anti-human IgG Fc tips, CD70 ECD-His in solution 200 to 3.13 nM, 1:1 global fit
Description: as §2

[13] = biological target: T4, Recombinant cynomolgus monkey CD70 …; assay: as above
Description: as §2

[14] = Hydrophobic interaction chromatography (HIC) of anti-CD70 antibodies; format: physicochemical; settings: for Retention time (hydrophobicity): TSK gel Butyl-NPR
Description: Antibodies were purified from cleared cell culture supernatants using Protein A chromatography (Protein A resin slurry, 4.5 mL, Bogen, Cat #18-0010-02). Briefly, supernatants were prepared for affinity chromatography and loaded onto the columns and allowed to flow completely through the resin. The columns were washed with binding buffer containing 0.15M NaCl and 0.2M PB, PH7.0. Antibody was eluted with elution buffer containing 0.15M NaCl, 0.1M Glycine and 0.2M PB, PH 3.0. Fractions were collected and neutralized by the addition of 1/10 volume of 1M Tris, PH9.0. The fractions were dialyzed for 2 hours against 1×PBS. Purified antibody was quantified by absorbance at A280. Samples from each step of the protein A chromatography were applied onto 12% SDS-PAGE gels for reduced and non-reduced electrophoresis. The hydrophobicity was assessed with hydrophobic interaction chromatography (HIC) on a TSK gel Butyl-NPR, 4.6×100 mm with Butyl-NPR (Tosoh corporation) using a Waters HPLC 2695 system.

CC[C@@]1(O)C(=O)OCc2c1cc1n(c2=O)Cc2c-1nc1cc(F)c(C)c3c1c2[C@@H](N)CC3 [Exatecan, exatecan]
cytotoxicity [1]: cytotoxic on all cell lines

B1: 2E7 antibody (antibody, human IgG1, kappa, V domains shown)
VH: QVQLQESGPGLVKPSETLSLTCTVSGGSVSSDYYYWSWIRQPPGKGLEWLGYIYYSGSTNYNPSLKSRVTISVDTSKNQFSLKLRSVTTADTAVYYCARGDGDFLGVCFDYWGQGTLVTVSS
VL: EIVLTQSPATLSLSPGERATLSCRASQSVSSYLAWYQQKPGQAPRLLIFDASNRATGIPARFSGSGSGTDFTLTISSLEPEDFAVYYCQQRSNWPLTFGGGTKVEIKR
notes: Made in ExpiCHO-S cells and purified on Protein A; also called Ab 2E7; parental mAb (2E7)
EC50 [2]: 19.9 nM | EC50 [3]: 2.81 nM | EC50 [4]: 1.59 nM | binding result [5]: no binding (tested: 200 nM) | Kd [6]: 0.807 nM | koff [6]: 0.000254 s⁻¹ | kon [6]: 314000 M⁻¹ s⁻¹ | Kd [7]: 0.39 nM | koff [7]: 0.000241 s⁻¹ | kon [7]: 618000 M⁻¹ s⁻¹ | IC50 [8]: 8.78 nM | IC50 [9]: 6.24 nM | IC50 [10]: 7.04 nM

B2: 2E7-LD038 conjugate (antibody, human IgG1, kappa, DAR 8, V domains shown)
VH: B1 VH
VL: B1 VL
modifications: Drug-Linker LD038 (PB038; PEG unit, cleavable linker, exatecan) attached to cysteines after TCEP reduction; DAR8 for the whole antibody; residues not stated
notes: The constant regions are tied to 2E7 by claim 120; also called PA038; ADC PA038
EC50 [2]: 26.4 nM | EC50 [3]: 2.16 nM | EC50 [4]: 1.45 nM | binding result [11]: no binding (tested: 200 nM) | Kd [12]: 0.12 nM | koff [12]: 5.45e-05 s⁻¹ | kon [12]: 456000 M⁻¹ s⁻¹ | Kd [13]: 0.144 nM | koff [13]: 9.4e-05 s⁻¹ | kon [13]: 652000 M⁻¹ s⁻¹ | IC50 [8]: 11.6 nM | IC50 [9]: 7.35 nM | IC50 [10]: 8.03 nM

B3: 1H8: anti-CD70 clone with "at least two more amino acid substitutions in HCDR3/LCDR3" "compared with the parent antibody 69A7" (antibody, V domains shown)
VH: B1 VH with L105M
VL: EIVLTQSPATLSLSPGERATLSCRASQSVSSYLAWYQQKPGQAPRLLIFDASNRATGIPARFSGSGSGTDFTLTISSLEPEDFAVYYCQQRSNWPLTFGGGTKVEIK
hydrophobicity compared with parent antibody 69A7 [14]: slightly more hydrophobic than the parent antibody | Retention time (hydrophobicity) [14]: 10.24 min

B4: 2A4: anti-CD70 clone with "at least two more amino acid substitutions in HCDR3/LCDR3" "compared with the parent antibody 69A7" (antibody, V domains shown)
VH: B1 VH with F104Y, L105G, V107N, C108V, D110P
VL: B3 VL
Retention time (hydrophobicity) [14]: 9.06 min

B5: 2D2: anti-CD70 clone with "at least two more amino acid substitutions in HCDR3/LCDR3" "compared with the parent antibody 69A7" (antibody, V domains shown)
VH: B1 VH with F104Y, L105G, V107N
VL: B3 VL with S92L, N93K, W94F
Retention time (hydrophobicity) [14]: 8.81 min
